To fix the notation:
T1: natriuretic peptide receptor-B (human)
T1 chain: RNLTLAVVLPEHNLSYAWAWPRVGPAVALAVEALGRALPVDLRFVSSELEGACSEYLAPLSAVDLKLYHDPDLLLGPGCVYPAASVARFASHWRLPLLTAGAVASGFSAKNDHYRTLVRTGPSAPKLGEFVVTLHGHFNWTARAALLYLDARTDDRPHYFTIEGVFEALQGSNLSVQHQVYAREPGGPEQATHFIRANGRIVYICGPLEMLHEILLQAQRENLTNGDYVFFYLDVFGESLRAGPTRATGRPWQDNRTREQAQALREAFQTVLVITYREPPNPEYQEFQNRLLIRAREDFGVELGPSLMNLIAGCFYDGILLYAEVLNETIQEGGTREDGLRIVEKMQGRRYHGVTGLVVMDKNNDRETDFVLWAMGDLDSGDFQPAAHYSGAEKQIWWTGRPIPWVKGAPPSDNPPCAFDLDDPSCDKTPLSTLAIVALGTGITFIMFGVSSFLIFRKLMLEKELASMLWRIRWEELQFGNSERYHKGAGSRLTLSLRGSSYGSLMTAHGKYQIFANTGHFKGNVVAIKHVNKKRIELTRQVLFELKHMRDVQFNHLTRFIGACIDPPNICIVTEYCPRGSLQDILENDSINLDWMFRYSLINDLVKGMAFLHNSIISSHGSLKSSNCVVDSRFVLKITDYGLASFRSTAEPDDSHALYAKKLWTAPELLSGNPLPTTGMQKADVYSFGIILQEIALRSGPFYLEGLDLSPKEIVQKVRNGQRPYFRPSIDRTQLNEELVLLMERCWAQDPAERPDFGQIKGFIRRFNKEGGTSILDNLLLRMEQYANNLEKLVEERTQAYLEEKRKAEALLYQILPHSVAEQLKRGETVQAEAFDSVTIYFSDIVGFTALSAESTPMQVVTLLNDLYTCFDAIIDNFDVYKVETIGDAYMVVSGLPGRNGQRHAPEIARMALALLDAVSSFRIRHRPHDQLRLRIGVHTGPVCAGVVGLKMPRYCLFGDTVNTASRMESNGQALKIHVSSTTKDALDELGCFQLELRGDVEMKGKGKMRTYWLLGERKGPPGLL

B1: JAL-1598 (peptide)
peptide: Octanoyl-[Sni]F[dL][NMeL][Hyp][NMeL]DP[Che]
modifications: not fully specified; printed as Occ-Sni-Phe-leu-Nml-Hyp-Nml-Asp-Pro-Che; reading uncertain
B2: JAL-1597 (peptide)
peptide: Octanoyl-[Sni][NMeF][dL]L[Hyp][NMeL]DP[Che]
modifications: not fully specified; printed as Occ-Sni-Nmf-leu-Leu-Hyp-Nml-Asp-Pro-Che; reading uncertain
B3: JAL-1509_02 (peptide)
peptide: [Occ][Sni]FLL[Hyp][NMeL]DP[1381]
modifications: not fully specified (residue 4); printed as Occ-Sni-Phe-leu-Leu-Hyp-Nml-Asp-Pro-1381
B4: JAL-1513 (peptide)
peptide: [Occ][Sni]FLL[Hyp][NMeL]DP[5121]
modifications: not fully specified (residue 4); printed as Occ-Sni-Phe-leu-Leu-Hyp-Nml-Asp-Pro-5121
B5: JAL-1574 (peptide)
peptide: [Occ]XFXLXXDRI-NH2
modifications: not fully specified (residues 2, 4, 6, 7); printed as Occ-Sni-Phe-nml-Leu-Hyp-Nml-Asp-Arg-Ile-NH2
B6: JAL-1511 (peptide)
peptide: [Occ][Sni]FLL[Hyp][NMeL]DP[1906]
modifications: not fully specified (residue 4); printed as Occ-Sni-Phe-leu-Leu-Hyp-Nml-Asp-Pro-1906; reading uncertain
B7: JAL-1594 (peptide)
peptide: Octanoyl-[Sni]FLL[Hyp][NMeL]VP[Che]
modifications: not fully specified (some residues); printed as Occ-Sni-Phe-leu-Leu-Hyp-Nml-Val-Pro-Che; reading uncertain
B8: JAL-1512_02 (peptide)
peptide: [Occ][Sni]FLL[Hyp][NMeL]DP[Che]
modifications: not fully specified (residue 4); printed as Occ-Sni-Phe-leu-Leu-Hyp-Nml-Asp-Pro-Che; reading uncertain
B9: JAL-1556 (peptide)
peptide: [Occ][dA]F[dL]L[Hyp][NMeL][BB725]RI-NH2
modifications: reading uncertain; also: printed as Occ-ala-Phe-leu-Leu-Hyp-Nml-(BB725)-Arg-Ile-NH2
B10: JAL-1596 (peptide)
peptide: Octanoyl-[Sni]FLL[Hyp]IDP[Che]
modifications: not fully specified (some residues); printed as Occ-Sni-Phe-leu-Leu-Hyp-Ile-Asp-Pro-Che; reading uncertain
B11: JAL-1595 (peptide)
peptide: Octanoyl-[Sni]FLL[Hyp][tBuAla]DP[Che]
modifications: not fully specified (some residues); printed as Occ-Sni-Phe-leu-Leu-Hyp-Npg-Asp-Pro-Che; reading uncertain
B12: JAL-1510 (peptide)
peptide: [Occ][Sni]FLL[Hyp][NMeL]DP[1860]
modifications: not fully specified (residue 4); printed as Occ-Sni-Phe-leu-Leu-Hyp-Nml-Asp-Pro-1860; reading uncertain

Numbered stars: 1 amine (or outer) side, 2 acyl side, 3 side chain; on linkers, the order of the positions; unused ones are H or OH. Square brackets hold non-standard residues; d marks the D form. Ends that are not written are not given here. * marks the point of attachment. Pro(trans-4-NH2) = O=C([C@@H]1C[C@@H](N[*:3])CN1[*:1])[*:2]; 1381 = (S)-3,3-dimethylbutan-2-amine, C[C@H](N*)C(C)(C)C; Sni = (S)-nipecotic acid, O=C([C@H]1CCCN([*:1])C1)[*:2]; 5121 = 1-propyl-butyl-amine, CCCC(CCC)N*; dGly(2-thienyl) = N[C@@H](C(=O)O)c1cccs1; Gly(2-thienyl) = N[C@H](C(=O)O)c1cccs1; Butanoyl(4-cHex) = O=C(CCCC1CCCCC1)*; NMeR = CN[C@@H](CCCNC(=N)N)C(=O)O; dDap(Me2) = CN(C)C[C@@H](N)C(=O)O; Hyp = O=C(O)[C@@H]1C[C@@H](O)CN1; NMeF = CN[C@@H](Cc1ccccc1)C(=O)O; NMeI = CC[C@H](C)[C@H](NC)C(=O)O; tBuAla = CC(C)(C)C[C@H](N)C(=O)O; NMeD = CN[C@@H](CC(=O)O)C(=O)O; NMeL = CN[C@@H](CC(C)C)C(=O)O; BB725 = not defined here; Octanoyl = CCCCCCCC(=O)*; 1860 = not defined here; 1906 = not defined here; Api = NC1(C(=O)O)CCNCC1; Che = not defined here; Occ = octanoic acid Where only a bound is given, the exact number is not on record here.

34 molecules from patent publication US9187525B2, “Methods of treating ophthalmic diseases using NPR-B agonists” (Shire Orphan Therapies GmbH, dated 2015) can be followed below.

This assay deals with T1, natriuretic peptide receptor-B. Kind of assay: cell-based or functional assay.
Regarding B1, the “EC50 group, cGMP in GTM-3 cells” value was ≤ 15 µM.

For B2, the “EC50 group, cGMP in GTM-3 cells” value was ≤ 1 µM.

For B3, the “EC50 group, cGMP in GTM-3 cells” value was ≤ 5 µM.

For B4, the “EC50 group, cGMP in GTM-3 cells” value is ≤ 15 µM.

As for [Occ][dA]F[dL]L[Hyp][NMeL][Gly(2-thienyl)]RI-NH2 [JAL-1557], the “EC50 group, cGMP in GTM-3 cells” value was ≤ 15 µM.

Take B5: the “EC50 group, cGMP in GTM-3 cells” value is ≤ 15 µM.

Take [Occ][Sni]F[Api]L[Hyp][NMeL]DRI-NH2 [JAL-1555]: the “EC50 group, cGMP in GTM-3 cells” value was ≤ 1 µM.

For [Occ][Sni]F[dDap(Me2)]L[Hyp][NMeL][NMeD]RI-NH2 [JAL-1577], the “EC50 group, cGMP in GTM-3 cells” value was ≤ 15 µM.

For B6, the “EC50 group, cGMP in GTM-3 cells” value is ≤ 5 µM.

On to {Butanoyl(4-cHex)}-[dA][dA]FGLKLDRI-NH2 [JAL-0693], for which the “EC50 group, cGMP in GTM-3 cells” value is ≤ 15 µM.

B7: the “EC50 group, cGMP in GTM-3 cells” value was ≤ 5 µM.

For [Occ][Sni]F[dDap(Me2)][NMeL][Hyp][NMeL]DRI-NH2 [JAL-1578], the “EC50 group, cGMP in GTM-3 cells” value is ≤ 5 µM.

Take [Occ][Sni]F[dL]L[Hyp][NMeL]D[NMeR]I-NH2 [JAL-1570]: the “EC50 group, cGMP in GTM-3 cells” value was ≤ 5 µM.

As for {Butanoyl(4-cHex)}-[dP]FGLKLDRI-NH2 [JAL-0695], the “EC50 group, cGMP in GTM-3 cells” value was ≤ 15 µM.

As for [Occ][Sni]FGL[Pro(trans-4-NH2)][NMeL]DPI-NH2 [JAL-1560], the “EC50 group, cGMP in GTM-3 cells” value is ≤ 5 µM.

With B8, the “EC50 group, cGMP in GTM-3 cells” value is ≤ 1 µM.

With Octanoyl-[dP]FGLKLDRI-NH2 [JAL-0694], the “EC50 group, cGMP in GTM-3 cells” value was ≤ 15 µM.

Regarding B9, the “EC50 group, cGMP in GTM-3 cells” value was ≤ 1 µM.

For [Occ][Sni]F[dL]L[Pro(trans-4-NH2)][NMeL]DP[Che] (reading uncertain; also: printed as Occ-Sni-Phe-leu-Leu-Tap-Nml-Asp-Pro-Che) [JAL-1568], the “EC50 group, cGMP in GTM-3 cells” value was ≤ 1 µM.

Turning to [Occ][Sni]F[dDap(Me2)]L[Hyp][NMeL]DPI-NH2 [JAL-1580], the “EC50 group, cGMP in GTM-3 cells” value is ≤ 1 µM.

In the case of [Occ][Sni]F[dL]L[Hyp][NMeL]DR[NMeI]-NH2 [JAL-1569], the “EC50 group, cGMP in GTM-3 cells” value is ≤ 1 µM.

As to [Occ][Sni][NMeF][dL]L[Hyp][NMeL]DRI-NH2 [JAL-1573], the “EC50 group, cGMP in GTM-3 cells” value was ≤ 1 µM.

For B10, the “EC50 group, cGMP in GTM-3 cells” value was ≤ 5 µM.

As to [Occ][Sni]F[dL]L[Pro(trans-4-NH2)][NMeL]DPI-NH2 [JAL-1559], the “EC50 group, cGMP in GTM-3 cells” value was ≤ 1 µM.

In the case of [Occ][Sni][NMeF][dDap(Me2)]L[Hyp][NMeL]DRI-NH2 [JAL-1579], the “EC50 group, cGMP in GTM-3 cells” value was ≤ 1 µM.

As for [Occ][Sni]F[Api]L[Pro(trans-4-NH2)][NMeL]DPI-NH2 [JAL-1561], the “EC50 group, cGMP in GTM-3 cells” value was ≤ 1 µM.

With B11, the “EC50 group, cGMP in GTM-3 cells” value is ≤ 1 µM.

Regarding [Occ][dA]F[dL]L[Hyp][NMeL][dGly(2-thienyl)]RI-NH2 [JAL-1558], the “EC50 group, cGMP in GTM-3 cells” value was ≤ 1 µM.

Turning to [Occ][Sni]F[dDap(Me2)]L[Hyp][NMeL]DR[NMeI]-NH2 [JAL-1575], the “EC50 group, cGMP in GTM-3 cells” value was ≤ 15 µM.

In the case of [Occ][Sni]F[dDap(Me2)]L[Hyp][NMeL]D[NMeR]I-NH2 [JAL-1576], the “EC50 group, cGMP in GTM-3 cells” value is ≤ 1 µM.

On to B12, for which the “EC50 group, cGMP in GTM-3 cells” value was ≤ 1 µM.

As to [Occ][Sni]FLL[Hyp][NMeL]DRI-NH2 [JAL-1554], the “EC50 group, cGMP in GTM-3 cells” value is ≤ 5 µM.

As for [Occ][Sni]FAL[Hyp][NMeL]DRI-NH2 [JAL-1553], the “EC50 group, cGMP in GTM-3 cells” value was ≤ 15 µM.

For the molecule [Occ][Sni]F[dL][NMeL][Hyp][NMeL]DRI-NH2 [JAL-1572], the “EC50 group, cGMP in GTM-3 cells” value was ≤ 15 µM.
